The chains are these.
B1: IgG1-F1353 (antibody)
heavy: QVQLQESGPGLVKPSETLSLTCAVSGHSISHDHAWSWVRQPPGEGLEWIGFISYSGITNYNPSLQGRVTISRDNSKNTLYLQMNSLRAEDTAVYYCARSLARTTAMDYWGEGTLVTVSSASTKGPSVFPLAPSSKSTSGGTAALGCLVKDYFPEPVTVSWNSGALTSGVHTFPAVLQSSGLYSLSSVVTVPSSSLGTQTYICNVNHKPSNTKVDKKVEPKSCDKTHTCPPCPAPELRGGPKVFLFPPKPKDTLYISRTPEVTCVVVDVSHEDPEVKFNWYVDGVEVHNAKTKPREEQYNSTYRVVSVLTVLHQDWLNGKEYKCKVSNKALPAPIEKTISKAKGQPREPQVYTLPPSRDELTKNQVSLTCLVKGFYPSDIAVEWESNGQPENNYKTTPPVLDSDGSFFLYSKLTVDKSRWQQGNVFSCSVMHEALDYHTTRKELSLSP
light: not shown
B2: IgG1-F1356 (antibody)
heavy: B1 heavy with R237L, G238R, K241S, L330R, D435H, T438V, R440Q, E442S
light: not shown
B3: IgG1-F1372 (antibody)
heavy: B1 heavy with S256T, T258E
light: not shown
B4: IgG1-F1365 (antibody)
heavy: B1 heavy with T258E, R440K
light: not shown
B5: IgG1-F1411 (antibody)
heavy: QVQLQESGPGLVKPSETLSLTCAVSGHSISHDHAWSWVRQPPGEGLEWIGFISYSGITNYNPSLQGRVTISRDNSKNTLYLQMNSLRAEDTAVYYCARSLARTTAMDYWGEGTLVTVSSASTKGPSVFPLAPSSKSTSGGTAALGCLVKDYFPEPVTVSWNSGALTSGVHTFPAVLQSSGLYSLSSVVTVPSSSLGTQTYICNVNHKPSNTKVDKKVEPKSCDKTHTCPPCPAPELLGGPSVFLFPPKPKDTLMISRTPEVTCVVVDVSHEDPEVKFNWYVDGVEVHNAKTKPREEQYNSTYRVVSVLTPLHQDWLNGKEYKCKVSNKALPAPVEKTISKAKGQPREPQVYTLPPSRDELTKNQVSLTCLVKGFYPSDIAVEWESNGQPENNYKTTPPVLDSDGSFFLYSKLTVDKSRWQQGNVFSCSVLHEALHSHYTQKSLSLSP
light: not shown
B6: IgG1-F1359 (antibody)
heavy: B1 heavy with S256T, D435H, T438F
light: not shown
B7: IgG1-F1368 (antibody)
heavy: B1 heavy with S256T, T258E, D435H, T438F, R440K
light: not shown
B8: IgG1-F1362 (antibody)
heavy: B1 heavy with S256T, T438F, R440K
light: not shown
B9: IgG1-F1373 (antibody)
heavy: B1 heavy with S256T, T258E, T438F, R440K
light: not shown
B10: IgG1-F1358 (antibody)
heavy: B1 heavy with S256T, D435H, T438F, R440K
light: not shown
B11: IgG1-F1366 (antibody)
heavy: B1 heavy with T258E, T438F, R440K
light: not shown
B12: IgG1-F1361 (antibody)
heavy: B1 heavy with S256T
light: not shown
B13: IgG1-F1354 (antibody)
heavy: B1 heavy with T438F, R440K
light: not shown
B14: IgG1-F1364 (antibody)
heavy: B1 heavy with T258E, D435H, T438F, R440K
light: not shown
B15: IgG1-F1360 (antibody)
heavy: B1 heavy with S256T, R440K
light: not shown
B16: IgG1-F1355 (antibody)
heavy: B1 heavy with T438F
light: not shown
B17: IgG1-F1377 (antibody)
heavy: B1 heavy with T258E, D435H, T438V, R440Q, E442S
light: not shown
B18: IgG1-F1375 (antibody)
heavy: B1 heavy with S256T, D435H, T438V, R440Q, E442S
light: not shown
B19: IgG1-F1367 (antibody)
heavy: B1 heavy with S256T, T258E, D435H
light: not shown
B20: IgG1-F1357 (antibody)
heavy: B1 heavy with S256T, D435H
light: not shown
B21: IgG1-F1376 (antibody)
heavy: B1 heavy with S256T, T258E, D435H, T438V, R440Q, E442S
light: not shown
B22: F1644 (antibody)
chain 1: B1 heavy with S256T, T258E, D435K, T438V, R440K
chain 2: DIQMTQSPSSLSASVGDSVTITCQASTDISSHLNWYQQKPGKAPELLIYYGSHLLSGVPSRFSGSGSGTDFTFTISSLEAEDAATYYCGQGNRLPYTFGQGTKVEIERTVAAPSVFIFPPSDEQLKSGTASVVCLLNNFYPREAKVQWKVDNALQSGNSQESVTEQDSKDSTYSLSSTLTLSKADYEKHKVYACEVTHQGLSSPVTKSFNRGEC
B23: F1614 (antibody)
chain 1: B1 heavy with S256T, R257L, T258E, E260D, T438V, E442D
chain 2: B22 chain 2
B24: F1649 (antibody)
chain 1: B1 heavy with S256T, T258E, D435P, T438V, R440K, E442D
chain 2: B22 chain 2
B25: F1610 (antibody)
chain 1: B1 heavy with S256T, R257L, T258E, E260D, T438V, R440K
chain 2: B22 chain 2
B26: F1586 (antibody)
chain 1: B1 heavy with S256T, R257L, T258E, E260D, T438V
chain 2: B22 chain 2
B27: F1613 (antibody)
chain 1: B1 heavy with S256T, R257L, T258E, E260I, T438V, R440K, E442D
chain 2: B22 chain 2
B28: F1578 (antibody)
chain 1: B1 heavy with S256T, T258E, D435R, T438V
chain 2: B22 chain 2
B29: F1572 (antibody)
chain 1: B1 heavy with S256T, T258E, D435K, T438V
chain 2: B22 chain 2
B30: F1592 (antibody)
chain 1: B1 heavy with S256T, R257L, T258E, E260I, T438V
chain 2: B22 chain 2
B31: F1579 (antibody)
chain 1: B1 heavy with S256T, T258E, D435S, T438V
chain 2: B22 chain 2
B32: F1612 (antibody)
chain 1: B1 heavy with S256T, R257L, T258E, E260D, T438V, R440K, E442D
chain 2: B22 chain 2
B33: F1611 (antibody)
chain 1: B1 heavy with S256T, R257L, T258E, E260I, T438V, R440K
chain 2: B22 chain 2
B34: F1605 (antibody)
chain 1: B1 heavy with S256T, R257L, T258E, T438V, E442D
chain 2: B22 chain 2
B35: F1645 (antibody)
chain 1: B1 heavy with S256T, T258E, D435K, T438V, E442D
chain 2: B22 chain 2
B36: F1567 (antibody)
chain 1: B1 heavy with S256T, T258E, D435A, T438V
chain 2: B22 chain 2
B37: F1641 (antibody)
chain 1: B1 heavy with S256T, T258E, D435A, T438V, R440K
chain 2: B22 chain 2
B38: F1642 (antibody)
chain 1: B1 heavy with S256T, T258E, D435A, T438V, E442D
chain 2: B22 chain 2
B39: F1647 (antibody)
chain 1: B1 heavy with S256T, T258E, D435P, T438V, R440K
chain 2: B22 chain 2
B40: F1646 (antibody)
chain 1: B1 heavy with S256T, T258E, D435K, T438V, R440K, E442D
chain 2: B22 chain 2
B41: F1576 (antibody)
chain 1: B1 heavy with S256T, T258E, D435P, T438V
chain 2: B22 chain 2
B42: F1615 (antibody)
chain 1: B1 heavy with S256T, R257L, T258E, E260I, T438V, E442D
chain 2: B22 chain 2
B43: F1648 (antibody)
chain 1: B1 heavy with S256T, T258E, D435P, T438V, E442D
chain 2: B22 chain 2
B44: F1650 (antibody)
chain 1: B1 heavy with S256T, T258E, D435R, T438V, R440K
chain 2: B22 chain 2
B45: F1643 (antibody)
chain 1: B1 heavy with S256T, T258E, D435A, T438V, R440K, E442D
chain 2: B22 chain 2

In patent US20140363428A1 (Chugai, published 2014) one finds Kd data, which are given here for 45 molecules.

For orientation: Kd means the concentration at which binding is half-saturated. Read a high Kd as lower affinity.

Changes are numbered by the printed parent chain.

T1 sequence (P55899 24-297 limits assumed, chain 1 of 2): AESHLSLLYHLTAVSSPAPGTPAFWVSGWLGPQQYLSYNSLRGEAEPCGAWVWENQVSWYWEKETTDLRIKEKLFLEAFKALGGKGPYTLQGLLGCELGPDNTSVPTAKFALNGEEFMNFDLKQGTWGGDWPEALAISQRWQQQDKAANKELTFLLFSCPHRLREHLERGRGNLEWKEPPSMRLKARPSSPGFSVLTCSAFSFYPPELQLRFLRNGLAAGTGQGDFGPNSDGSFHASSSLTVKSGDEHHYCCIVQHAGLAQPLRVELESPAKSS
T1 sequence (P61769 21-119 limits assumed, chain 2 of 2): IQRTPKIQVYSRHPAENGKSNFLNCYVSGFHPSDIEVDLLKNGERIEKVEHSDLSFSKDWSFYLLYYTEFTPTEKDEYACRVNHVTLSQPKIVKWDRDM

One assay concerns the target T1, soluble human FcRn (human, UniProt P55899 24-297; P61769 21-119).
T1 construct: Heterodimer of alpha chain and beta2-microglobulin; also called hFcRn
Description: SPR (Biacore), pH 7.0, 25 C. (In general: In SPR one partner is held on a chip, and binding of the other changes the refractive index at the surface.)
Description: An appropriate amount of protein L (ACTIGEN) was immobilized onto Sensor chip CM4 (GE Healthcare) by the amino coupling method, and the chip was allowed to capture an antibody of interest. Then, diluted FcRn solutions and running buffer (as a reference solution) were injected to allow human FcRn to interact with the antibody captured on the sensor chip. The running buffer used comprised 50 mmol/l sodium phosphate, 150 mmol/l NaCl, and 0.05% (w/v) Tween20 (pH 7.0). FcRn was diluted using each buffer. The chip was regenerated using 10 mmol/l glycine-HCl (pH 1.5). Assays were carried out exclusively at 25 degrees C. The association rate constant ka (1/Ms) and dissociation rate constant kd (1/s), both of which are kinetic parameters, were calculated based on the sensorgrams obtained in the assays, and KD (M) of each antibody for human FcRn was determined from these values. Each parameter was calculated using Biacore T100 Evaluation Software (GE Healthcare).
Regarding B1, the Kd is 430 nM.

The molecule B2 showed a Kd of 160 nM.

As for B3, the Kd turned out to be 230 nM.

Turning to B4, the affinity, expressed as Kd, was 310 nM.

Consider B5, for which the Kd was found to be 170 nM.

B6 had a Kd of 130 nM.

Molecule B7 yielded a Kd of 55 nM.

Regarding B8, binding was put at a Kd of 140 nM. This Kd lies about 2.5-fold higher than the previous one.

As for B9, the Kd was found to be 87 nM.

B10 yielded a Kd of 91 nM. The Kd values of the last two molecules are within 1.5-fold of each other.

As for B11, the affinity, expressed as Kd, was 120 nM.

The molecule B12 showed a Kd of 350 nM.

As for B13, the affinity, expressed as Kd, was 230 nM.

The molecule B14 registered a Kd of 75 nM. Compared with the last molecule, the Kd is about 3.1-fold lower.

The molecule B15 registered a Kd of 310 nM.

Consider B16, for which the affinity, expressed as Kd, was 250 nM. The Kd values of the last two molecules are within 1.5-fold of each other.

Turning to B17, the Kd turned out to be 83 nM.

As to B18, the Kd worked out at 100 nM.

On to B19, for which binding was put at a Kd of 180 nM. Compared with the last molecule, the Kd is about 1.8-fold higher.

With B20, binding was characterised by a dissociation constant (Kd) of 280 nM. Compared with the last molecule, the Kd is about 1.6-fold higher.

The molecule B21 returned a Kd of 91 nM.

For another assay, the target named is T1, soluble human FcRn. Description: SPR (Biacore), pH 7.0.
Turning to B22, the Kd was 35 nM.

Take B23: the equilibrium dissociation constant (Kd) stood at 51 nM.

Turning to B24, the Kd is 37 nM.

As for B25, the Kd amounted to 48 nM.

Regarding B26, the Kd was 55 nM.

B27 showed a Kd of 52 nM. This Kd and that of the molecule before are within 1.5-fold of each other.

B28 gave a Kd of 46 nM.

For B29, the Kd was 41 nM.

B30 returned a Kd of 55 nM.

Molecule B31 had a Kd of 54 nM.

As to B32, the Kd was determined as 49 nM.

In turn, B33 showed a Kd of 52 nM.

B34 yielded a Kd of 61 nM.

The molecule B35 yielded a Kd of 36 nM.

B36 showed a Kd of 48 nM.

B37: the Kd worked out at 41 nM.

Regarding B38, the affinity, expressed as Kd, was 41 nM. In other words, the double-digit nanomolar range.

In turn, B39 had a Kd of 38 nM. The Kd values of the last two molecules are within 1.5-fold of each other.

For B40, binding was characterised by a dissociation constant (Kd) of 35 nM.

With B41, the Kd turned out to be 43 nM.

The molecule B42 yielded a Kd of 60 nM.

Take B43: the Kd turned out to be 38 nM.

B44 registered an equilibrium dissociation constant (Kd) of 40 nM. This Kd and that of the molecule before are within 1.5-fold of each other.

Molecule B45 yielded a Kd of 39 nM.
